The source of these data is patent US20200392228A1 (PANDION OPERATIONS, published 2020).

Assay [1] addresses T1, mouse MAdCAM expressed on cells (mouse, UniProt Q61826 22-405).
T1 construct: whole, on cells
T1 sequence (looked up): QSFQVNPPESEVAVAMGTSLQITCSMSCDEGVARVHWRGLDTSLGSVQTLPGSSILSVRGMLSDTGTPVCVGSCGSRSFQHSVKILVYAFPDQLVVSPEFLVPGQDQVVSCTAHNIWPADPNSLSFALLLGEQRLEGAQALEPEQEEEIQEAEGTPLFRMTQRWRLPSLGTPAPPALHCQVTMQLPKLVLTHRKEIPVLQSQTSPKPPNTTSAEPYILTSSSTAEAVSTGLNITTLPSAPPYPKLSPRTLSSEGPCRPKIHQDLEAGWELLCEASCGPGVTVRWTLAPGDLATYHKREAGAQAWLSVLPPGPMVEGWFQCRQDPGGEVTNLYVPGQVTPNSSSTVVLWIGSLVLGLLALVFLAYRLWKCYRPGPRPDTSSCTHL
Kind of assay: cell binding.

In assay [2] the target is T2, human MAdCAM expressed on cells (human, UniProt Q13477 19-382).
T2 construct: whole, on cells; also called MADCAM1
T2 sequence (looked up): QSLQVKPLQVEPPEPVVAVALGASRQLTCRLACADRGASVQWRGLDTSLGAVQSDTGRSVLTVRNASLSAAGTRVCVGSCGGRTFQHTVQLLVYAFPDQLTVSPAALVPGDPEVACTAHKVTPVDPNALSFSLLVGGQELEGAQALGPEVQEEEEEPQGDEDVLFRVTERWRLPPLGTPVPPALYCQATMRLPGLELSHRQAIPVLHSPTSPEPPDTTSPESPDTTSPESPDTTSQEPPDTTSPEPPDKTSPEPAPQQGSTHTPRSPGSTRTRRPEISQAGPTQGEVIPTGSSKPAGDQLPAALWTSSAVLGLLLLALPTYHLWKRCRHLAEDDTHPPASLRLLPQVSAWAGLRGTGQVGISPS
Description: cell binding.

B1: MAdCAM antibody Clone ID 11 of Table 6 (scFv) (scFv)
scFv: QVQLVQSGAEVKKPGASVKVSCKASGYTFTTYYMHWVRQAPGQGLEWMGGFDPEDGETIYAQKFQGRVTMTRDTSTSTVYMELSSLRSEDTAVYYCARHAVAGAVGAGYYYYGMDVWGQGTMVTVSSGGGGSGGGGSGGGGSGGGGSDIQMTQSPSSLSASVGDRVTITCRASESISNWLAWYQQKPGKAPKLLIYAASTLQSGVPSRFSGSGSGTDFTLTISSLQPEDFATYYCQQSYSVPFTFGPGTKVDIK
For the molecule B1, the binding result in assay [1] was “no binding”; in assay [2] it was “binds”.

B2: MAdCAM antibody Clone ID 55 of Table 6 (scFv) (scFv)
scFv: QVQLVQSGAEVKKPGASVKVSCKASGYTFTSYYMHWVRQAPGQGLEWMGIIDPSGGSTSYAQKFQGRVTMTRDTSTSTVYMELSSLRSEDTAVYYCAREEWSSGGVGYFDYWGQGTLVTVSSGGGGSGGGGSGGGGSGGGGSDIQMTQSPSSLSASVGDRVTITCRASQGISSYLAWYQQKPGKAPKLLIYATSSLQTGVPSRFSGSGSGTDFTLTISSLQPEDFATYYCQQTYSIPITFGQGTRLEIK
As to B2, the figures for the binding result in assay [1] and in assay [2] were “no binding” and “binds”, respectively.

B3: MAdCAM antibody Clone ID 13 of Table 6 (scFv) (scFv)
scFv: EVQLLESGGGLVQPGGSLRLSCAASGFTFDDYAMHWVRQAPGKGLEWVSYIDASGTTIYYADSVKGRFTISRDNSKNTLYLQMNSLRAEDTAVYYCAKDQAAAGYWYFDLWGRGTLVTVSSGGGGSGGGGSGGGGSGGGGSDIQMTQSPSSLSASVGDRVTITCQASQDISNYLNWYQQKPGKAPKLLIYKASTLESGVPSRFSGSGSGTDFTLTISSLQPEDFATYYCQQSYSTPITFGQGTRLEIK
Consider B3, for which the binding result in assay [1] is on record as “no binding”; in assay [2], “binds”.

B4: MAdCAM antibody Clone ID 10 of Table 6 (scFv) (scFv)
scFv: QVQLVQSGAEVKKPGASVKVSCKASGYTLTTWYMYWVRQAPGQGLEWMGWINPNRGATNYAQKFQGRVTMTRDTSTSTVYMELSSLRSEDTAVYYCAKGDLWGAMDVWGQGTLVTVSSGGGGSGGGGSGGGGSGGGGSDIQMTQSPSSLSASVGDRVTITCRASDNIGSWLAWYQQKPGKAPKLLIYAASSLQSGVPSRFSGSGSGTDFTLTISSLQPEDFATYYCQQGYSTPPTFGQGTKVEIK
Take B4: the binding result in assay [1] is recorded as “no binding”; in assay [2], “binds”.

B5: MAdCAM antibody Clone ID 26 of Table 6 (scFv) (scFv)
scFv: QVQLVQSGAEVKKPGASVKVSCKASGYTLTTWYMYWVRQAPGQGLEWMGWINPNRGATNYAQKFQGRVTMTRDTSTSTVYMELSSLRSEDTAVYYCAKGDLWGAMDVWGQGTTVTVSSGGGGSGGGGSGGGGSGGGGSDIQMTQSPSSLSASVGDRVTITCRASDNIGSWLAWYQQKPGKAPKLLIYAASSLQSGVPSRFSGSGSGTDFTLTISSLQPEDFATYYCQQGYSTPPTFGQGTKVEIK
Turning to B5, the binding result in assay [1] is on record as “no binding”; in assay [2], “binds”.

B6: MAdCAM antibody Clone ID 16 of Table 6 (scFv) (scFv)
scFv: EVQLLESGGGLVQPGGSLRLSCAASGFTFEDYAMHWVRQAPGKGLEWVSYLNSDGGSTSYADSVKGRFTISRDNSKNTLYLQMNSLRAEDTAVYYCAKDYCTNGVCAFDYWGQGTLVTVSSGGGGSGGGGSGGGGSGGGGSDIQMTQSPSSLSASVGDRVTITCRASQSISTYLNWYQQKPGKAPKLLIYDASNLETGVPSRFSGSGSGTDFTLTISSLQPEDFATYYCQQSYTIPITFGQGTRLEIK
In the case of B6, the binding result is on record as “no binding” in assay [1] and “binds” in assay [2].

B7: MAdCAM antibody Clone ID 53 of Table 6 (scFv) (scFv)
scFv: QVQLVQSGAEVKKPGASVKVSCKASGYTFTSYDINWVRQAPGQGLEWMGWMNPNSGNTGYAQKFQGRVTMTRDTSTSTVYMELSSLRSEDTAVYYCAKDSDYSNLLWDYWGQGTLVTVSSGGGGSGGGGSGGGGSGGGGSDIQMTQSPSSLSASVGDRVTITCRASQDITNDLGWYQQKPGKAPKLLIYQASSLESGVPSRFSGSGSGTDFTLTISSLQPEDFATYYCQQSYTIPLTFGQGTKVEIK
For the molecule B7, the binding result in assay [1] was “no binding”; in assay [2], “binds”.

B8: MAdCAM antibody Clone ID 50 of Table 6 (scFv) (scFv)
scFv: QVQLVQSGAEVKKPGASVKVSCKASGYTFTSYDINWVRQAPGQGLEWMGWINPNSGTTGYAQKFQGRVTMTRDTSTSTVYMELSSLRSEDTAVYYCARSPYYYYGMDVWGQGTTVTVSSGGGGSGGGGSGGGGSGGGGSDIQMTQSPSSLSASVGDRVTITCRASHFISRWVAWYQQKPGKAPKLLIYAASTLQSGVPSRFSGSGSGTDFTLTISSLQPEDFATYYCQQSYSGISFGPGTKVDIK
Turning to B8, the binding result is on record as “no binding” in assay [1] and “binds” in assay [2].

B9: MAdCAM antibody Clone ID 58 of Table 6 (scFv) (scFv)
scFv: QVQLVQSGAEVKKPGASVKVSCKASGYTFTGYYMHWVRQAPGQGLEWMGIINPSGGNTKYAQKFQGRVTMTRDTSTSTVYMELSSLRSEDTAVYYCTTADYYYYMDVWGKGTTVTVSSGGGGSGGGGSGGGGSGGGGSDIQMTQSPSSLSASVGDRVTITCRASQGISNYLAWYQQKPGKAPKLLIYAASSLQSGVPSRFSGSGSGTDFTLTISSLQPEDFATYYCQQYYSNADFGQGTKVEIK
For B9, the binding result is recorded as “no binding” in assay [1] and “binds” in assay [2].

B10: MAdCAM antibody Clone ID 14 of Table 6 (scFv) (scFv)
scFv: QVQLVQSGAEVKKPGSSVKVSCKASGYTFTDYHIHWVRQAPGQGLEWMGGIVPRSGSTTYAQKFQGRVTITADESTSTAYMELSSLRSEDTAVYYCAKDESSGWYYFDYWGQGTLVTVSSGGGGSGGGGSGGGGSGGGGSDIVMTQSPLSLPVTPGEPASISCRSSQSLLHSNGYNYLDWYLQKPGQSPQLLIYSAYNRASGVPDRFSGSGSGTDFTLKISRVEAEDVGVYYCMQALQTPLTFGQGTKVEIK
Turning to B10, the binding result in assay [1] is listed as “no binding”; in assay [2], “binds”.

B11: MAdCAM antibody Clone ID 54 of Table 6 (scFv) (scFv)
scFv: EVQLLESGGGLVQPGGSLRLSCAASGFTFGDYAMSWVRQAPGKGLEWVAVVSYDGTNKYYADSVKGRFTISRDNSKNTLYLQMNSLRAEDTAVYYCAKDICSSTSCYFDLWGRGTLVTVSSGGGGSGGGGSGGGGSGGGGSDIQMTQSPSSLSASVGDRVTITCRASQNINNYVNWYQQKPGKAPKLLIYDASNLETGVPSRFSGSGSGTDFTLTISSLQPEDFATYYCQQANSFPPTFGQGTRLEIK
Regarding B11, the binding result is “no binding” in assay [1] and “binds” in assay [2].

B12: MAdCAM antibody Clone ID 57 of Table 6 (scFv) (scFv)
scFv: QVQLVQSGAEVKKPGASVKVSCKASGYTFTSYYMHWVRQAPGQGLEWMGIINPSGGSTSYAQKFQGRVTMTRDTSTSTVYMELSSLRSEDTAVYYCARDSVAGTGGRYYGMDVWGQGTLVTVSSGGGGSGGGGSGGGGSGGGGSDIQMTQSPSSLSASVGDRVTITCRASQGISNYFAWYQQKPGKAPKLLIYAASSLQGGVPSRFSGSGSGTDFTLTISSLQPEDFATYYCQQSYSLPYTFGQGTKLEIK
Take B12: the binding result in assay [1] is “no binding”; in assay [2], “binds”.

B13: MAdCAM antibody Clone ID 51 of Table 6 (scFv) (scFv)
scFv: EVQLLESGGGLVQPGGSLRLSCAASGFTFNNYGMNWVRQAPGKGLEWVSRINSDGSSTSYADSVKGRFTISRDNSKNTLYLQMNSLRAEDTAVYYCARGAYYYYYMDVWGQGTLVTVSSGGGGSGGGGSGGGGSGGGGSEIVMTQSPATLSVSPGERATLSCRASQSVSGSYLAWYQQKPGQAPRLLIYATSSRASGIPARFSGSGSGTEFTLTISSLQSEDFAVYYCQQYYSGLTFGQGTKVEIK
In the case of B13, the binding result was “no binding” in assay [1] and “binds” in assay [2].

B14: MAdCAM antibody Clone ID 15 of Table 6 (scFv) (scFv)
scFv: QVQLVQSGAEVKKPGSSVKVSCKASGYTFTNYYMHWVRQAPGQGLEWMGGIIPIVDRVKYAQKFQGRVTITADESTSTAYMELSSLRSEDTAVYYCAKGRYTVNYYYGMDVWGQGTTVTVSSGGGGSGGGGSGGGGSGGGGSDIQMTQSPSSLSASVGDRVTITCQANQDISNYLNWYQQKPGKAPKLLIYRASKLEAGVPSRFSGSGSGTDFTLTISSLQPEDFATYYCQQSSEIPYSFGQGTKLEIK
Consider B14, for which the binding result in assay [1] is given as “no binding”; in assay [2], “binds”.

B15: MAdCAM antibody Clone ID 52 of Table 6 (scFv) (scFv)
scFv: EVQLLESGGGLVQPGGSLRLSCAASGFTFSNSDMNWVRQAPGKGLEWVAHIWNDGSQKYYADSVKGRFTISRDNSKNTLYLQMNSLRAEDTAVYYCARDRTDPGYSSAMDVWGQGTTVTVSSGGGGSGGGGSGGGGSGGGGSDIQMTQSPSSLSASVGDRVTITCRASQDIRNYLGWYQQKPGKAPKLLIYDASSLETGVPSRFSGSGSGTDFTLTISSLQPEDFATYYCQQATSLPLTFGGGTKVEIK
With B15, the binding result is “no binding” in assay [1] and “binds” in assay [2].

B16: MAdCAM antibody Clone ID 8 of Table 6 (scFv) (scFv)
scFv: EVQLLESGGGLVQPGGSLRLSCAASGFMFGDYAMHWVRQAPGKGLEWVSAISGSGGSTYYADSVKGRFTISRDNSKNTLYLQMNSLRAEDTAVYYCAKDLVVAGIWYFDLWGRGTLVTVSSGGGGSGGGGSGGGGSGGGGSDIQMTQSPSSLSASVGDRVTITCRASQGISNNLNWYQQKPGKAPKLLIYDASSLESGVPSRFSGSGSGTDFTLTISSLQPEDFATYYCQQTHSFPSTFGQGTKLEIK
As to B16, the binding result in assay [1] is recorded as “no binding”; in assay [2], “binds”.
